Numbering of substitutions follows the chain as printed. In names and notes the source's numbering stands. Blank lines part the entries; values can stand above or below the binder they belong to.
Key:
[1] = molecular target: T1, membrane-bound full-length human CD89 (human, UniProt P24071 22-287); experiment: FACS, HEK293F-huCD89, 24 h 37C no NaN3, IgA then Ab 10 ug/mL; pre-bound non-aggr serum IgA
T1 construct: on stably or transiently transfected HEK293F cells; also called FcalphaRI; huCD89
Procedure: (§1) After extensive washing in PBS/BSA/NaN₃, 1:200 diluted PE-conjugated streptavidin (Jackson ImmunoResearch) was added, and incubated for 30 minutes at 4° C. After extensive washing in PBS/BSA/NaN₃, cells were fixed in 2% formaldehyde in PBS/BSA/NaN₃ for 30 minutes at 4° C.

[2] = molecular target: T1, membrane-bound full-length human CD89; experiment: FACS, HEK293F-huCD89, 24 h 37C no NaN3, Ab 10 ug/mL then IgA; competitor heat-aggr serum IgA
Procedure: as §1

[3] = molecular target: T2, chimeric bovine EC1-Fcγ2R/human EC2-CD89 (bovine/human chimera); experiment: FACS, transiently transfected HEK293F
T2 chain: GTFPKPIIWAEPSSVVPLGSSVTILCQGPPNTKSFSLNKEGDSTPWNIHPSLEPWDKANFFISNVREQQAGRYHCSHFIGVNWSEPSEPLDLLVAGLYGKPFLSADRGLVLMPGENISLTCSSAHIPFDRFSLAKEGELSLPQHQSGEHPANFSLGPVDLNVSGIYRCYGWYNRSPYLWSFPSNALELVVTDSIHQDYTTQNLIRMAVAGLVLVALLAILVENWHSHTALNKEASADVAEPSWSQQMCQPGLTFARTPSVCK
Procedure: After 48 hours and/or 72 hours, the binding of CD89/IgA blocking mouse anti-human CD89 antibodies to aforementioned chimeric human/bovine receptors on transfected cells was analyzed by FACS analysis. To this end, transient transfected HEK293F cells were put at 10×10⁶ cells/mL in ice-chilled phosphate-buffered saline containing 0.1% BSA (Sigma)/0.05% NaN₃ (PBS/BSA/NaN₃) supplemented with 50 μg/mL human IgGs (blocking Fcγ receptors; Sigma) for 10 minutes at 4° C. Then, 10 μL/tube (ie, 0.1×10⁶ cells) of these cells were incubated with or without 100 μL purified mouse anti-human CD89 antibody at 10 μg/mL (in PBS/BSA/NaN₃) for 30 minutes at 4° C. […] After extensive washing in PBS/BSA/NaN₃, cells were subsequently incubated with 1:200 diluted PE-conjugated goat anti-mouse IgG Fey-specific antibodies (Jackson ImmunoResearch) for 30 minutes at 4° C. After extensive washing in PBS/BSA/NaN₃, cells were fixed in 2% formaldehyde in PBS/BSA/NaN₃ for 30 minutes at 4° C.

[4] = molecular target: T1, membrane-bound full-length human CD89; experiment: FACS, HEK293F-huCD89, 4C +NaN3, IgA then Ab 10 ug/mL; pre-bound heat-aggr serum IgA
Procedure: as §1

[5] = molecular target: T3, membrane full-length cynomolgus monkey CD89 (cynomolgus monkey); experiment: FACS, transiently transfected HEK293F; - = no binding
T3 construct: also called cynoCD89; cynomolgus EC1-CD89
T3 chain: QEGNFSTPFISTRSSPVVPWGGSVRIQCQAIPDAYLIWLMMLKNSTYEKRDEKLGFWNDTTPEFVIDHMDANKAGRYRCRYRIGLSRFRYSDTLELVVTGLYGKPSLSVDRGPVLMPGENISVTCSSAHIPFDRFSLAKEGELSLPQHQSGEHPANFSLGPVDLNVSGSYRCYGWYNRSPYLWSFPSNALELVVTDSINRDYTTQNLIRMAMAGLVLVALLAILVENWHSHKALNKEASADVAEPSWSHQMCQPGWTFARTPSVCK

[6] = molecular target: T4, chimeric human/cynomolgus monkey CD89-hotspots (human/cynomolgus monkey chimera, UniProt P24071 22-287); experiment: FACS, transiently transfected HEK293F, 10 ug/mL; ++ strong, + intermediate, -/+ weak
T4 construct: also called ΔThr58, Gln59; ΔArg73, Arg74, Lys76
T4 chain: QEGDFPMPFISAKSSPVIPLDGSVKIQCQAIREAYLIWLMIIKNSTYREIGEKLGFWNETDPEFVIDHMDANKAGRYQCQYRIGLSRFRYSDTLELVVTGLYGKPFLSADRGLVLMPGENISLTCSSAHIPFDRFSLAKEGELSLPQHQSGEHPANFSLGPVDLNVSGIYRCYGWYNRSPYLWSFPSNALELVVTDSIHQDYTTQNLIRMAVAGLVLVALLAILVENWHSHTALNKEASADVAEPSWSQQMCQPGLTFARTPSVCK
Procedure: (§2) After 48 hours, the binding of CD89/IgA blocking mouse anti-human CD89 antibodies to aforementioned chimeric human CD89/cynomolgus monkey CD89 constructs on transfected cells was analyzed by FACS analysis. To this end, transient transfected HEK293F cells were put at 10×10⁶ cells/mL in ice-chilled phosphate-buffered saline containing 0.1% BSA (Sigma)/0.05% NaN₃ (PBS/BSA/NaN₃) supplemented with 50 μg/mL human IgGs (blocking Fcγ receptors; Sigma) for 10 minutes at 4° C. Then, 10 μL/tube (ie, 0.1×10⁶ cells) of these cells were incubated with or without 100 μL purified mouse anti-human CD89 antibody at 10 μg/mL (in PBS/BSA/NaN₃) for 30 minutes at 4° C. […] After extensive washing in PBS/BSA/NaN₃, cells were subsequently incubated with 1:200 diluted PE-conjugated goat anti-mouse IgG Fey-specific antibodies (Jackson ImmunoResearch) for 30 minutes at 4° C. After extensive washing in PBS/BSA/NaN₃, cells were fixed in 2% formaldehyde in PBS/BSA/NaN₃ for 30 minutes at 4° C.

[7] = molecular target: T5, chimeric human/cynomolgus monkey CD89-I (human/cynomolgus monkey chimera, UniProt P24071 22-287); experiment: as above
T5 construct: also called ΔGln22-Lys46 human EC1-CD89; I (22-46)
T5 chain: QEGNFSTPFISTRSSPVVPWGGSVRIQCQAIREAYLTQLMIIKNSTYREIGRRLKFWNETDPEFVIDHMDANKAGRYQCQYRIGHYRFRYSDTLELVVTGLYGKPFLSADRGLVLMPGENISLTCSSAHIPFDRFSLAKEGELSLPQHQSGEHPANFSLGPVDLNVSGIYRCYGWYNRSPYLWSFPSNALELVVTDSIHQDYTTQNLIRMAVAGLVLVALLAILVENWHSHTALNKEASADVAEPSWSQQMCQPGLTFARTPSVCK
Procedure: as §2

[8] = molecular target: T6, chimeric human/cynomolgus monkey CD89-III (human/cynomolgus monkey chimera, UniProt P24071 22-287); experiment: as above
T6 construct: also called ΔGly72-Gly96 human EC1-CD89; III (72-96)
T6 chain: T4 chain with I37T, W38Q, G51D, E59D, D61T, L85H, S86Y
Procedure: as §2

[9] = molecular target: T7, chimeric human/cynomolgus monkey CD89-II (human/cynomolgus monkey chimera, UniProt P24071 22-287); experiment: as above
T7 construct: also called ΔIle47-Ile71 human EC1-CD89; II (47-71)
T7 chain: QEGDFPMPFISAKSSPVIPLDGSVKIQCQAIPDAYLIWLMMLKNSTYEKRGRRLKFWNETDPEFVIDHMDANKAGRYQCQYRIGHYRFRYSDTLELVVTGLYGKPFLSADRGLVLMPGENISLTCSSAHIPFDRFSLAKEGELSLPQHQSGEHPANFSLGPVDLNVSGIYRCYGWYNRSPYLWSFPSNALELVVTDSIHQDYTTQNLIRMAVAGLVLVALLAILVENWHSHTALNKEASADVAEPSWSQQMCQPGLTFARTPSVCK
Procedure: as §2

[10] = molecular target: T1, membrane-bound full-length human CD89; experiment: FACS, HEK293F-huCD89, 4C +NaN3, Ab 10 ug/mL then IgA; competitor heat-aggr serum IgA
Procedure: To mimic human IgA immune complexes, human (serum-derived) IgA (Bethyl Laboratories) was heated at 63° C. for 30 minutes, and cooled down to RT followed by centrifugation at 4° C. 12000×g for 2 minutes to remove any insoluble protein precipitation.
Then, 10 μL/tube (ie, 0.1×10⁶ cells) of these cells were incubated with or without 50 μL purified mouse anti-human CD89 antibody at 20 μg/mL (in PBS/BSA/NaN₃) for 30 minutes at 4° C.

[11] = molecular target: T1, membrane-bound full-length human CD89; experiment: FACS, HEK293F-huCD89, 4C +NaN3, Ab 10 ug/mL then IgA; competitor non-aggr serum IgA
Procedure: Then, 10 μL/tube (ie, 0.1×10⁶ cells) of these cells were incubated with or without 50 μL purified mouse anti-human CD89 antibody at 20 μg/mL (in PBS/BSA/NaN₃) for 30 minutes at 4° C. […] After extensive washing in PBS/BSA/NaN₃, 1:200 diluted PE-conjugated streptavidin (Jackson ImmunoResearch) was added, and incubated for 30 minutes at 4° C. After extensive washing in PBS/BSA/NaN₃, cells were fixed in 2% formaldehyde in PBS/BSA/NaN₃ for 30 minutes at 4° C.

[12] = molecular target: T1, membrane-bound full-length human CD89; experiment: FACS, HEK293F-huCD89, 24 h 37C no NaN3, Ab 10 ug/mL then IgA; competitor non-aggr serum IgA
Procedure: as §1

[13] = molecular target: T1, membrane-bound full-length human CD89; experiment: FACS, HEK293F-huCD89, 24 h 37C no NaN3, IgA then Ab 10 ug/mL; pre-bound heat-aggr serum IgA
Procedure: as §1

[14] = molecular target: T1, membrane-bound full-length human CD89; experiment: FACS, HEK293F-huCD89, unlabeled Ab 10 ug/mL first; competitor MIP8a-PE
Procedure: Then, 10 μL/tube (ie, 0.1×10⁶ cells) of these cells were incubated with or without 100 μL purified mouse anti-human CD89 antibody at 10 μg/mL (in PBS/BSA/NaN₃) for 30 minutes at 4° C. […] After extensive washing in PBS/BSA/NaN₃, cells were fixed in 2% formaldehyde in PBS/BSA/NaN₃ for 30 minutes at 4° C.

[15] = molecular target: T1, membrane-bound full-length human CD89; experiment: FACS, HEK293F-huCD89, 4C +NaN3, IgA then Ab 10 ug/mL; pre-bound non-aggr serum IgA
Procedure: After this (ie, without washing), 50 μL purified mouse anti-human CD89 antibody at 20 μg/mL (in PBS/BSA/NaN₃) was added to these cells, and incubated for another 30 minutes at 4° C. […] After extensive washing in PBS/BSA/NaN₃, 1:200 diluted PE-conjugated streptavidin (Jackson ImmunoResearch) was added, and incubated for 30 minutes at 4° C. After extensive washing in PBS/BSA/NaN₃, cells were fixed in 2% formaldehyde in PBS/BSA/NaN₃ for 30 minutes at 4° C.

[16] = molecular target: T1, membrane-bound full-length human CD89; experiment: FACS, HEK293F-huCD89, half-maximum binding
Procedure: Then, 10 μL/tube (ie, 0.1×10⁶ cells) of these cells were incubated with or without 100 μL titrated (in PBS/BSA/NaN₃) purified chimeric mouse/human anti-human CD89 antibody/tube for 30 minutes at 4° C. […] After extensive washing in PBS/BSA/NaN₃, cells were subsequently incubated with 1:200 diluted PE-conjugated goat anti-human IgG Fey-specific antibodies (Jackson ImmunoResearch) for 30 minutes at 4° C. After extensive washing in PBS/BSA/NaN₃, cells were fixed in 2% formaldehyde in PBS/BSA/NaN₃ for 30 minutes at 4° C.

[17] = molecular target: T8, recombinant C-terminal polyhistidine-tagged human (extracellular) CD89 (human, UniProt P24071 22-227); experiment: ELISA, coated rhuCD89, half-maximum binding
T8 construct: extracellular domain; bought (Sino Biological); also called rhuCD89
Procedure: After extensive washing with PBS/0.05% Tween 20, plates were blocked with PBS/0.05% Tween 20/1% BSA (Roche) for 1 hour at RT. Subsequently, plates were incubated with 50 μL titrated (in block buffer) purified mouse anti-human CD89 antibody/well for 1 hour at RT. […] After extensive washing in PBS/0.05% Tween 20, binding of antibodies on rhuCD89 was determined with 1:5,000 diluted horseradish peroxidase (HRP)-conjugated goat anti-mouse IgG Fey-specific antibodies (Jackson ImmunoResearch) for 1 hour at RT, followed by a ready-to-use solution of TMB substrate (Invitrogen) for colorimetric detection.
After extensive washing with PBS/0.05% Tween 20, plates were blocked with PBS/0.05% Tween 20/1% BSA (Roche) for 1 hour at RT. Subsequently, plates were incubated with and without 50 μL titrated (in block buffer) purified chimeric mouse/human anti-human CD89 antibody/well for 1 hour at RT. After extensive washing in PBS/0.05% Tween 20, binding of antibodies on rhuCD89 was determined with 1:5,000 diluted horseradish peroxidase (HRP)-conjugated goat anti-human IgG Fey-specific antibodies (Jackson ImmunoResearch) for 1 hour at RT, followed by a ready-to-use solution of TMB substrate (Invitrogen) for colorimetric detection.

B3: chimeric mouse/human anti-human CD89 antibody 8F3 (antibody, human IgG4 S228P, kappa)
heavy: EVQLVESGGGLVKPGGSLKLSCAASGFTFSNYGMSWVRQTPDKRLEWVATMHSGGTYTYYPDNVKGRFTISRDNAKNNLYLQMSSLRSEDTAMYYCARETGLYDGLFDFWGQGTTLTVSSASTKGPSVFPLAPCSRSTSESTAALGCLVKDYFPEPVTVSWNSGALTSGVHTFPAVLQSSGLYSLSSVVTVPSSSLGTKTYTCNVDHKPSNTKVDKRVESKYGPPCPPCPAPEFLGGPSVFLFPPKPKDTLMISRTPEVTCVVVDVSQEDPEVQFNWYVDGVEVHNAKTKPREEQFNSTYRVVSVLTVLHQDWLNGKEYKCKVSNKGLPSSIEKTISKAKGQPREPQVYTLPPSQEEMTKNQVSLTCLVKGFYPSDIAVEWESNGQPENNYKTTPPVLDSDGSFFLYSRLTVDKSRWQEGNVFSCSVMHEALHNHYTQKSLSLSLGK
light: DVQITQSPSYLAASPGETITINCRASKTISKYLAWYQEKPGKTNMLLIYSGSTLQSGVPSRFSGSGSGTDFTLTISSLEPEDLAMYYCQQHDEYPWTFGGGTKLEIKRTVAAPSVFIFPPSDEQLKSGTASVVCLLNNFYPREAKVQWKVDNALQSGNSQESVTEQDSKDSTYSLSSTLTLSKADYEKHKVYACEVTHQGLSSPVTKSFNRGEC
notes: mouse V regions on stabilized (S239P) human IgG4/kappa; also called chimeric 8F3; copies: 2 + 2
EC50 [16]: 1.32 µg/mL
EC50 [17]: 0.031 µg/mL

B5: chimeric mouse/human anti-human CD89 antibody 16D6 (antibody, human IgG4 S228P, kappa)
heavy: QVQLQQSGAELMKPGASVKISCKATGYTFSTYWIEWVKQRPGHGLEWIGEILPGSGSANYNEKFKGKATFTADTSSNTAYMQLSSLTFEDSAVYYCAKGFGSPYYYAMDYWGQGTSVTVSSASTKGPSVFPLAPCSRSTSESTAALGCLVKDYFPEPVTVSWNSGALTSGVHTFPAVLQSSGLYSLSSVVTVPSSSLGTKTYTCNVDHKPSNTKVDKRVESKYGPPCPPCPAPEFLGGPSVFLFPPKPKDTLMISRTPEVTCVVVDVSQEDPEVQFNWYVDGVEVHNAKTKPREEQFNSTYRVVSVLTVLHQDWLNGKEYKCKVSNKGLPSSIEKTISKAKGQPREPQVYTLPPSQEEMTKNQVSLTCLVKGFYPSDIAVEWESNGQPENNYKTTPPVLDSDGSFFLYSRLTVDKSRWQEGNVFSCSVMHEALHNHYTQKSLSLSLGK
light: EIVLTQSPALMAASPGEKVTITCSVSSSISSSNLHWYQQKSETSPKPWIYGTSKLASGVPVRFSGSGSGTSYSLTISNMEAEDAATYYCQQWSSFPLTFGGGTKLEIKRTVAAPSVFIFPPSDEQLKSGTASVVCLLNNFYPREAKVQWKVDNALQSGNSQESVTEQDSKDSTYSLSSTLTLSKADYEKHKVYACEVTHQGLSSPVTKSFNRGEC
notes: mouse V regions on stabilized (S239P) human IgG4/kappa; also called chimeric 16D6; 16D16; copies: 2 + 2
EC50 [16]: 1.79 µg/mL
EC50 [17]: 0.108 µg/mL

B6: chimeric mouse/human anti-human CD89 antibody 10E7 (antibody, human IgG4 S228P, kappa)
heavy: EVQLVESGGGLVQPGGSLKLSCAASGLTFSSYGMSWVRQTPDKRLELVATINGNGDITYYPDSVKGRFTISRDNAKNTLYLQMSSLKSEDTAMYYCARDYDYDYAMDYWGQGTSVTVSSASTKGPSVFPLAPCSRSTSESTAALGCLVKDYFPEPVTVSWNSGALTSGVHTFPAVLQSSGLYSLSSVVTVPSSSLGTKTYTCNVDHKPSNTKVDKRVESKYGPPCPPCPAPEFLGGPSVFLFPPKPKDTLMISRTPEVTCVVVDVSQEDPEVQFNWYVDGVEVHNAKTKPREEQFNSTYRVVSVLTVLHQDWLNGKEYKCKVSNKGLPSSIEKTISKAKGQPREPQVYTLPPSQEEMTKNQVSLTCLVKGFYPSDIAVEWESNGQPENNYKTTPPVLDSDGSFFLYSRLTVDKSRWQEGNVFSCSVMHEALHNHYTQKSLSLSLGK
light: DIQMTQSTSSLSASLGDSVTISCRASQDIINYLNWYQQKPDGTVKLLIYYTSRLHSGVPSRFSGSGSGTEYSLTVSNLEKEDIATYFCQQGKTLPYTFGGGTKLEIKRTVAAPSVFIFPPSDEQLKSGTASVVCLLNNFYPREAKVQWKVDNALQSGNSQESVTEQDSKDSTYSLSSTLTLSKADYEKHKVYACEVTHQGLSSPVTKSFNRGEC
notes: mouse V regions on stabilized (S239P) human IgG4/kappa; also called chimeric 10E7; copies: 2 + 2
EC50 [16]: 1.25 µg/mL
EC50 [17]: 0.016 µg/mL

The remaining lines, values ahead:

percent IgA binding (remaining) [1]: 0 to 25%
percent IgA binding (remaining) [2]: 0 to 25%
binding result [3]: no binding (tested: 10 µg/mL)
percent IgA binding [4]: 0 to 25%
binding result [5]: no binding (tested: 10 µg/mL)
binding result [6]: binds
binding result [7]: binds
binding result [8]: binds
binding result [9]: binds
percent IgA binding [10]: 0 to 25%
percent IgA binding [11]: 0 to 25%
percent IgA binding (remaining) [12]: 0 to 25%
percent IgA binding (remaining) [13]: 0 to 25%
% blocking of MIP8a-PE binding [14]: > 90%
percent IgA binding [15]: 0 to 25%
B1: mouse anti-human CD89-specific antibody 26D6 (antibody, mouse IgG1, V domains shown)
VH: QIQLVQSGPELKKPGETVKISCKASGYTLTKYGMNWVKQAPGKGLKWMGWINTYTGEPTYADDFKGRFAFSLETSASTAYLQINNLKNEDTATYFCASLPLFGRDSFAYWGQGTLVTVSA
VL: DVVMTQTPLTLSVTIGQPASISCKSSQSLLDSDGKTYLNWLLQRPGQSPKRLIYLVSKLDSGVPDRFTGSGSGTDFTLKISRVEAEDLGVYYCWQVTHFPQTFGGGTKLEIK
notes: printed as 26B6 in some paragraphs; also called 26B6

EC50 [16]: 0.296 µg/mL
EC50 [17]: 0.009 µg/mL
B2: chimeric mouse/human anti-human CD89 antibody 20B4 (antibody, human IgG4 S228P, kappa)
heavy: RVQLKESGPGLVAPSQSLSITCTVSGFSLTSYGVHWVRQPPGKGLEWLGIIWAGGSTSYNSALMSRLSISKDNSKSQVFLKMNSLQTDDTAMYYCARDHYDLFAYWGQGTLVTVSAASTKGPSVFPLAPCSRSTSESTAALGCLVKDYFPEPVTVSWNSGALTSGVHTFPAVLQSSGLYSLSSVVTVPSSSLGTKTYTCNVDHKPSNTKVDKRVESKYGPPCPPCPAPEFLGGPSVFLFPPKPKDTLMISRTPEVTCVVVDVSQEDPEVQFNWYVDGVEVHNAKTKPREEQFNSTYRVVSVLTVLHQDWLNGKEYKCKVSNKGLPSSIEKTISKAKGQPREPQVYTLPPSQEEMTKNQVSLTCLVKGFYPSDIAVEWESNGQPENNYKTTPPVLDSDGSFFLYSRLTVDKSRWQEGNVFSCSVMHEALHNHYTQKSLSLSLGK
light: DILMTQSPSSMSVSLGDTVSITCHASQDISRNIGWLQQKPGKSFKGLIYHGTNLEDGVPSRFSGSGSGADYSLTISSLESEDFADYYCVQYAQFPRTFGGGTKLEIKRTVAAPSVFIFPPSDEQLKSGTASVVCLLNNFYPREAKVQWKVDNALQSGNSQESVTEQDSKDSTYSLSSTLTLSKADYEKHKVYACEVTHQGLSSPVTKSFNRGEC
notes: mouse V regions on stabilized (S239P) human IgG4/kappa; also called chimeric 20B4; copies: 2 + 2

percent IgA binding (remaining) [1]: 0 to 25%
percent IgA binding (remaining) [2]: 0 to 25%
percent IgA binding [4]: 0 to 25%
percent IgA binding [10]: 0 to 25%
percent IgA binding [11]: 0 to 25%
percent IgA binding (remaining) [12]: 0 to 25%
percent IgA binding (remaining) [13]: 0 to 25%
% blocking of MIP8a-PE binding [14]: > 90%
percent IgA binding [15]: 0 to 25%
B4: mouse anti-human CD89-specific antibody 9H7 (antibody, mouse IgG1, V domains shown)
VH: QIQLVQSGPELKKPGETVKISCKASGYTFKNYGMNWVKQAPGKGLKWMAWINTYTGEPTHTDDFKGRFVFSLETSASTAYLQINNLKNEDTATYFCARWGLGTTEEAARDYWGQGTTLTVSS
VL: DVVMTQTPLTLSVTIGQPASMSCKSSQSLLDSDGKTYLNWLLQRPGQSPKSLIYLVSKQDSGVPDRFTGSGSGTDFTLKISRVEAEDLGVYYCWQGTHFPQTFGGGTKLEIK

From patent publication US20210388084A1 (JJP BIOLOGICS SP Z O O, published 2021)
